Measurements as given in patent US20160376596A1 (BAVARIAN NORDIC A S, published 2016).

Biological target: T1, B19 protein of chorioallantois vaccinia virus Ankara (CVA) (Vaccinia virus, strain Ankara (CVA), UniProt P23998 20-351)
T1 construct: also called orthopoxviral B19 protein
Experiment: statement in Example 3; no assay described for IFN-β

B1: murine IFN-beta (ligand)
chain: INYKQLQLQERTNIRKCQELLEQLNGKINLTYRADFKIPMEMTEKMQKSYTAFAIQEMLQNVFLVFRNNFSSTGWNETIVVRLLDELHQQTVFLKTVLEEKQEERLTWEMSSTALHLKSYYWRVQRYLKLMKYNSYAWMVVRAEIFRNFLIIRRLTRNFQN
notes: also called IFN-β; murine IFN-β
binding result: no binding
